The data set can be described thus: amyloid nucleation score (Sup35N fusion, yeast selection) (log enrichment); library NNK3; higher = more nucleation; inactive = no reads after selection. A digest of the protocol:
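The nucleation score is a DiMSum log enrichment of output over input reads, centred on the mode score of non-aggregating sequences. Sequences under 100 input reads were excluded, and reads came from Illumina sequencing of plasmid inserts. Psi-negative yeast expressing Sup35N fused to peptides of 20 random codons were induced with 100 μM copper sulfate for 24 hours and grown 7 days at 30°C on medium lacking adenine and uracil. Random libraries had three technical output replicates.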

± gives the uncertainty stated by the source.

Here are results for 99 substances from the supplement of paper PMC12042874.

The substance GWGPRPSKNVCHIRCDMFFM showed an amyloid nucleation score of 1.59 ± 0.13.

The substance SLILALFSGISSDF came in with an amyloid nucleation score of 0.122 ± 0.37.

Consider YSIIVVL, for which the amyloid nucleation score was 1.39 ± 0.087.

Regarding QKNFLGNF, the amyloid nucleation score result was “inactive”.

For the substance YVTGVLDC, the amyloid nucleation score entry is “inactive”.

On to LNSSVYVLLRSILPSVWNQL, for which the amyloid nucleation score entry was “inactive”.

For FYIYP, the amyloid nucleation score result was “inactive”.

As to NSVVF, the amyloid nucleation score entry was “inactive”.

On to LSIVRAGVRSGNRGELFRCR, for which the amyloid nucleation score entry was “inactive”.

Turning to EFDDRACYDDTV, the amyloid nucleation score result was “inactive”.

VRSARRQAGELEGFYCLYQV: the amyloid nucleation score result is “inactive”.

Take LFKLSMQLCNT: the amyloid nucleation score was 1.71 ± 0.076.

With IMVWLRARSITYNQVDDRGS, the amyloid nucleation score entry is “inactive”.

TSFGMSTPCQAFARSVDDRG: the amyloid nucleation score result is “inactive”.

In turn, VSYLVCIDWVCPSGQWNAFW registered an amyloid nucleation score of 1.52 ± 0.11.

As for SIFSSCLSPYSFSYIKLLSC, the amyloid nucleation score stood at 0.504 ± 0.26.

Consider NTMLKSVMVFWRMLDFRFRL, for which the amyloid nucleation score result was “inactive”.

NKVTLGYMFITSLVRTSS registered an amyloid nucleation score of 0.491 ± 0.15.

On to FGQCNQVCCSEWDKD, for which the amyloid nucleation score entry is “inactive”.

In the case of VLANGKTSELRELKVHLLAG, the amyloid nucleation score is -0.274 ± 1.1.

Regarding PRASYMGRSKL, the amyloid nucleation score entry is “inactive”.

For FLILVGLGRIDLMGTIIKKR, the amyloid nucleation score entry was “inactive”.

Substance GFTAGRFPCGSFWLGSCCWY gave an amyloid nucleation score of 0.231 ± 0.36.

Consider PVTVFWVTMTSWYVNIRG, for which the amyloid nucleation score entry is “inactive”.

Consider GRFASYMYCILQQHSLFYWV, for which the amyloid nucleation score entry was “inactive”.

On to SFSFSKSNVSERDLCSTCTV, for which the amyloid nucleation score result is “inactive”.

YTAKYGGFISLYR yielded an amyloid nucleation score of 0.691 ± 0.15.

In the case of ALHWKGLQT, the amyloid nucleation score result was “inactive”.

For the substance SFSELVSAASKTQTVCRRKC, the amyloid nucleation score result is “inactive”.

In the case of NFLRCVHFLKFFMDFNGTSG, the amyloid nucleation score result was “inactive”.

Consider VKSFFSKGSCDNDTNINRRS, for which the amyloid nucleation score result was “inactive”.

For the substance LLDKVLSEPKTSQDRSENVA, the amyloid nucleation score was -0.696 ± 1.1.

Regarding MRLVACA, the amyloid nucleation score result is “inactive”.

Regarding FCFFSVSLDVLVHSGIC, the amyloid nucleation score is 0.417 ± 0.19.

Turning to LFMKRLFLSWFSMVVICGAP, the amyloid nucleation score came out at 0.362 ± 0.71.

With AVISNRFYEEKLYDATYLRL, the amyloid nucleation score result is “inactive”.

Turning to APIWVFRAYLVFL, the amyloid nucleation score entry was “inactive”.

PRSVLINLLHRTHVCCRLFS: the amyloid nucleation score entry is “inactive”.

For the substance ALSHKVAVYVYC, the amyloid nucleation score result was “inactive”.

In the case of DIFVNAV, the amyloid nucleation score entry is “inactive”.

With QYSMVVVV, the amyloid nucleation score result was “inactive”.

Regarding SPAHGLGFDMKMVVFMFGDR, the amyloid nucleation score worked out at 1.54 ± 0.12.

In the case of NLSSNVLTAALK, the amyloid nucleation score result was “inactive”.

In the case of CVVELHHVCRVPMCPFCWTV, the amyloid nucleation score result was “inactive”.

Take RQDLSHSFSDGRERQHWAKR: the amyloid nucleation score was -0.165 ± 0.81.

PTHLCFLQFTVAIFVSGIRA: the amyloid nucleation score was determined as 0.851 ± 0.12.

In the case of ICTDGVHGCMVGS, the amyloid nucleation score result was “inactive”.

With IDVRGSMYGVMMYHSTRDVT, the amyloid nucleation score entry is “inactive”.

As for PTELYFHPDI, the amyloid nucleation score entry is “inactive”.

The substance GASMLGAIKGYSTSERISLD showed an amyloid nucleation score of 0.175 ± 0.45.

Regarding KSFELYSKNVMYDSVLGVCL, the amyloid nucleation score entry is “inactive”.

Consider VRDFGLPTWAQLAWMYNANG, for which the amyloid nucleation score is -0.229 ± 1.1.

RKKESYSN: the amyloid nucleation score result is “inactive”.

Consider EWQSYYSKQRIGSGPFQLFC, for which the amyloid nucleation score turned out to be 0.179 ± 0.3.

As for LYLQVALRTWLLSRWDLDDI, the amyloid nucleation score entry is “inactive”.

Take AVYCPINLLAF: the amyloid nucleation score result is “inactive”.

The substance NYYSGMRLSQNKKTST came in with an amyloid nucleation score of 0.701 ± 0.11.

For the substance LTDDSCCPRR, the amyloid nucleation score result was “inactive”.

Regarding MSLIRYKLG, the amyloid nucleation score entry is “inactive”.

Consider GLYMKVKFGYTEWQDFGQSS, for which the amyloid nucleation score is -0.237 ± 0.69.

For the substance SSNNQMWTELITYCLRCAWV, the amyloid nucleation score result is “inactive”.

In the case of DNLFSETSYVVRFARFL, the amyloid nucleation score entry is “inactive”.

Regarding IKTGYSTHDPNHVDNTIRSR, the amyloid nucleation score entry is “inactive”.

VLFSGFFYLSDNYKLMGFVH: the amyloid nucleation score entry was “inactive”.

With FYWGAFNPYFVLIGILAYYT, the amyloid nucleation score result is “inactive”.

As for KAVLWFGDIWRQVG, the amyloid nucleation score result is “inactive”.

Consider MMPDYKPR, for which the amyloid nucleation score entry was “inactive”.

Turning to YVILGQDDHEKT, the amyloid nucleation score entry is “inactive”.

In the case of MCYQNMR, the amyloid nucleation score result is “inactive”.

Turning to MLNNNRWVGVFRLCWNVVWS, the amyloid nucleation score result was “inactive”.

Turning to AVLEMQLTIW, the amyloid nucleation score entry is “inactive”.

As to FLLRYWYKAVDSRHRYSQLI, the amyloid nucleation score result is “inactive”.

As to FSASSISDKIFSMEYCTTWV, the amyloid nucleation score result was “inactive”.

With ISVVMDNSACG, the amyloid nucleation score entry was “inactive”.

With DIQTLPKLDLVFFVWAILEL, the amyloid nucleation score entry was “inactive”.

As for WVYNGIIYGRLFMDLLWTGL, the amyloid nucleation score entry was “inactive”.

In the case of CDEVLTDKLVWGREFILWSD, the amyloid nucleation score result is “inactive”.

In turn, HISCMCLIYIV registered an amyloid nucleation score of 2.24 ± 0.088.

Take MKLVDLGVEIRLRRLAVSSV: the amyloid nucleation score result is “inactive”.

Consider HYVIV, for which the amyloid nucleation score result is “inactive”.

Turning to KDNTYVIFFYYLFVFVRTFL, the amyloid nucleation score entry is “inactive”.

For LDYAFCILNNNCREC, the amyloid nucleation score is 3.05 ± 0.057.

Regarding NHNIHVNGFHFN, the amyloid nucleation score entry was “inactive”.

As for IRLFHEAIKGDLC, the amyloid nucleation score entry is “inactive”.

As to LWSYITK, the amyloid nucleation score entry is “inactive”.

For the substance NLLPRCKLIDSWWSSHRLWV, the amyloid nucleation score is -0.809 ± 1.1.

As to NYGYRRPVMILPVHR, the amyloid nucleation score entry was “inactive”.

With SSTHIWGVQALGS, the amyloid nucleation score result was “inactive”.

Consider YSVIMPCSNLNWVDMNLTEY, for which the amyloid nucleation score was -0.169 ± 0.29.

On to KCCEQRAIIPFVGRTRSHAT, for which the amyloid nucleation score entry is “inactive”.

With YSGGCGWIMSRNSVRYSCIC, the amyloid nucleation score result is “inactive”.

Turning to HVVIARTNRGDYNCFSSDGG, the amyloid nucleation score entry was “inactive”.

Regarding NALTNSVKLFVLQTIVVYMR, the amyloid nucleation score result was “inactive”.

As for FPDTALLGCNCLFCLEGDGL, the amyloid nucleation score entry is “inactive”.

For the substance LIVGKNNVPMFTSNKFLVFS, the amyloid nucleation score was -0.508 ± 0.8.

In turn, MSVTITGALQVVTKVPANMI gave an amyloid nucleation score of 0.593 ± 0.2.

Turning to KWLYTDYRVISSHILKHLSA, the amyloid nucleation score result was “inactive”.

Regarding YMDPWYVIDHCLWRQMFLSE, the amyloid nucleation score is -0.557 ± 1.

With ERVNVVR, the amyloid nucleation score entry was “inactive”.
